Experimental data from paper PMC9724678, “The Autophagy Receptor TAX1BP1 (T6BP) improves antigen presentation by MHC‐II molecules” (EMBO Reports, 2022).

Biological target: T1, GFP-T6BP (TAX1BP1 / TRAF6-binding protein fused to GFP) (UniProt Q86VP1 1-789)
T1 construct: plasmid a gift from F. Buss; it is written both GFP-T6BP and T6BP-GFP; also called T6BP-GFP; source: HeLa-CIITA, transfected, in lysate
Assay: co-IP; GFP-T6BP or GFP alone from transfected HeLa-CIITA lysate on GFP-Trap beads, Western blot for CANX
Conditions: partners not purified

T1 sequence (Q86VP1 whole entry, the tested form may be a part): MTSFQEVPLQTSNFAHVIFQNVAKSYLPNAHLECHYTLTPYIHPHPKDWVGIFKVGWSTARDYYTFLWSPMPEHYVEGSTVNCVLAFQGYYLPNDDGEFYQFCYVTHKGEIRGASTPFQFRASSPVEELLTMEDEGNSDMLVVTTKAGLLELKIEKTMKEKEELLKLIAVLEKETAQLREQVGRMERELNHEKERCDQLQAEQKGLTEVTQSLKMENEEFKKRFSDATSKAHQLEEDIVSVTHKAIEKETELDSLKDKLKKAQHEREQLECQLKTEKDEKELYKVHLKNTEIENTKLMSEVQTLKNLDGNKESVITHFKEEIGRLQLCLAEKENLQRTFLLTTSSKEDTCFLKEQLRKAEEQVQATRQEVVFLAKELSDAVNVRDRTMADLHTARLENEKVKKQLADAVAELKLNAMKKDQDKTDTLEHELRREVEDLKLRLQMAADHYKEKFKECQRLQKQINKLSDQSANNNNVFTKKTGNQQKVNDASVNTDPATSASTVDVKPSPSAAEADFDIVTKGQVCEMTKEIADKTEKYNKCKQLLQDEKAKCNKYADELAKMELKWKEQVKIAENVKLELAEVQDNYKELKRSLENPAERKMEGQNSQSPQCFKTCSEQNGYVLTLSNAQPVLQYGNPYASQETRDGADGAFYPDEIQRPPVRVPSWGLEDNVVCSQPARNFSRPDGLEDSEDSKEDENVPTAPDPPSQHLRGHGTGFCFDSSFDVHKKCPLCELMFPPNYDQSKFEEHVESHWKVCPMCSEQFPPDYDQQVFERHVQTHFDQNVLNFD

fold enrichment against the GFP control: 3 fold
B1: Calnexin (CANX), endogenous (natural protein, UniProt P27824 21-592, looked up)
chain: HDGHDDDVIDIEDDLDDVIEEVEDSKPDTTAPPSSPKVTYKAPVPTGEVYFADSFDRGTLSGWILSKAKKDDTDDEIAKYDGKWEVEEMKESKLPGDKGLVLMSRAKHHAISAKLNKPFLFDTKPLIVQYEVNFQNGIECGGAYVKLLSKTPELNLDQFHDKTPYTIMFGPDKCGEDYKLHFIFRHKNPKTGIYEEKHAKRPDADLKTYFTDKKTHLYTLILNPDNSFEILVDQSVVNSGNLLNDMTPPVNPSREIEDPEDRKPEDWDERPKIPDPEAVKPDDWDEDAPAKIPDEEATKPEGWLDDEPEYVPDPDAEKPEDWDEDMDGEWEAPQIANPRCESAPGCGVWQRPVIDNPNYKGKWKPPMIDNPSYQGIWKPRKIPNPDFFEDLEPFRMTPFSAIGLELWSMTSDIFFDNFIICADRRIVDDWANDGWGLKKAADGAAEPGVVGQMIEAAEERPWLWVVYILTVALPVFLVILFCCSGKKQTSGMEYKKTDAPQPDVKEEEEEKEEEKDKGDEEEEGEEKLEEKQKSDAEEDGGTVSQEEEDRKPKAEEDEILNRSPRNRKPRRE
notes: ER-resident chaperone calnexin, endogenous; source: endogenous, HeLa-CIITA, DG-75 (B) and KG-1 (dendritic-like) lysates; endogenous in fixed HeLa-CIITA cells
